Experimental data published in article PMC12406269, “Identification and characterization of nanobodies specific for the human ubiquitin–like ISG15 protein” (The Journal of Biological Chemistry, 2025).

Biological target: T1, human ISG15 (1-157)-SBP-His (human, UniProt P05161 1-157)
T1 construct: human ISG15, residues 1-157, cloned into pET30b; also called hISG15-SBP-His; human ISG15-SBP; source: E. coli BL21 (DE3), purified (Ni-NTA, SEC); not shown: His, C-terminal, kept
Experiment: SEC; VHH and ISG15 mixed at the indicated molar ratios (1:2, 1:1 or 1:1:1) at 20 μM in 500 μl TBS, 20 min at room temperature; Superdex 75 10/300, fractions on SDS-PAGE
Settings: both partners purified

T1 sequence (P05161 1-157): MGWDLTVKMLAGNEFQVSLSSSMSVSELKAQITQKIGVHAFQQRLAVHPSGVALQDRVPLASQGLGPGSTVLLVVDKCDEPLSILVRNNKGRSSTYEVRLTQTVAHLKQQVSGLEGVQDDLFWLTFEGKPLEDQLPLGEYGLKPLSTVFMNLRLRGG

B1: VHH_(ISG15-A)-HA-His (VHH)
VHH: QLQLVETGGGLVQAGGSLRLSCAASGRTFAGLSVKWFRQPPGAEREWVAHITSTGSSTHYADSVKGRFTISRDYDRNMVYLQMSSLKPEDTAVYYCHASTLWPEKHQDYWGQGIQVTVSS
notes: VHH domain; also called VHH-A; source: E. coli WK6, periplasm (osmotic shock), purified (Ni-NTA, SEC); not shown: LPETGG sortase motif, C-terminal, kept; HA, C-terminal, kept; His6, C-terminal, kept
B1: binds.
